Series [1] concerns the molecule itself. Kind of series: crystal structure; monomers to homodimer; vapor diffusion at 18°C, protein at ~15 mg/ml, in complex with nucleotides; five crystal forms (C222_(1), P3_(1)21, P6_(1)22, C2, I2).
Series [2] deals with the molecule itself. Put plainly: crystal structure; dimers to tetramer (dimer of dimers) as seen in the hexagonal and monoclinic crystal forms; vapor diffusion at 18°C, protein at ~15 mg/ml.

B1: full cytoplasmic region of E. coli CpxA (CpxAHDC), wild type (domain or fragment, Escherichia coli, UniProt P0AE82 188-457, looked up)
chain: KPARKLKNAADEVAQGNLRQHPELEAGPQEFLAAGASFNQMVTALERMMTSQQRLLSDISHELRTPLTRLQLGTALLRRRSGESKELERIETEAQRLDSMINDLLVMSRNQQKNALVSETIKANQLWSEVLDNAAFEAEQMGKSLTVNFPPGPWPLYGNPNALESALENIVRNALRYSHTKIEVGFAVDKDGITITVDDDGPGVSPEDREQIFRPFYRTDEARDRESGGTGLGLAIVETAIQQHRGWVKAEDSPLGGLRLVIWLPLYKRS
notes: Sensor histidine kinase CpxA, Escherichia coli, full cytoplasmic region: HAMP domain (residues 188-237) and DHp and CA domains (residues 238-457); The trigonal (4BIV) and hexagonal (4CB0) crystals were grown from seleno-methionyl protein; Crystallised with ADP or ATP; also called CpxA transmitter core; wild-type CpxAHDC; source: SeMet protein from E. coli B834 (DE3)
For orientation: stoichiometry N means a count of units in the complex or per binding partner. B1: the “stoichiometry N” value in series [1] was determined as 2; in series [2], 4.

B2: point mutant CpxA_(HDC_M228V) of the full cytoplasmic region of E. coli CpxA (domain or fragment, Escherichia coli, UniProt P0AE82 188-457, looked up)
chain: KPARKLKNAADEVAQGNLRQHPELEAGPQEFLAAGASFNQVVTALERMMTSQQRLLSDISHELRTPLTRLQLGTALLRRRSGESKELERIETEAQRLDSMINDLLVMSRNQQKNALVSETIKANQLWSEVLDNAAFEAEQMGKSLTVNFPPGPWPLYGNPNALESALENIVRNALRYSHTKIEVGFAVDKDGITITVDDDGPGVSPEDREQIFRPFYRTDEARDRESGGTGLGLAIVETAIQQHRGWVKAEDSPLGGLRLVIWLPLYKRS
notes: Sensor histidine kinase CpxA, Escherichia coli, full cytoplasmic region (HAMP 188-237, DHp and CA 238-457) with the point mutation Met228-Val in the HAMP domain; Probably made like wild-type CpxAHDC (His-tagged, pET28a+, E. coli, IMAC and gel filtration), but the methods describe only the CpxAHDC construct; Crystallised with AMPPNP or ADP; also called CpxAHDC Met228-Val; source: purified protein
With B2, the “stoichiometry N” value in series [1] came out at 2; in series [2], 4.

Source of the values: article PMC3904827, “Segmental Helical Motions and Dynamical Asymmetry Modulate Histidine Kinase Autophosphorylation” (PLoS Biology, 2014).
